2 substances from article doi:10.1101/2023.01.23.525297 can be followed below.

Where two headings read alike, the source gives them in different places.

For experiment [1], the target named is zamilon vitis Zav_19 (zamilon vitis virophage). The experiment is described as follows: crystal structure.
Experiment [2] shares this target.
The target of experiment [3] is noumeavirus NMV_189 (noumeavirus).
For experiment [4] the target is unchanged. The experiment is described as follows: crystal structure.

As usually defined, the stoichiometry N is the number of molecules, sites or subunits per partner or assembly. For the substance zamilon vitis Zav_19 (natural protein), the stoichiometry N in experiment [1] and in experiment [2] was 3 throughout.

In the case of noumeavirus NMV_189 (natural protein), the stoichiometry N in experiment [3] and in experiment [4] was 3 throughout.
